Molecular target: T1, Recombinant human TpoR extracellular domain D1-D4 with mature N-glycans (human, UniProt P40238 26-489, mature N-glycans (4 N-glycans on the ECD))
T1 construct: thrombopoietin receptor (TpoR), human, extracellular domain D1-D4, starts at Q26 and ends at T489; details in Supplementary Methods; also called TpoR D1-D4; hTpoR D1-D4; source: Schneider S2 cells, purified; not shown: His tag, C-terminal, kept
T1 sequence (looked up): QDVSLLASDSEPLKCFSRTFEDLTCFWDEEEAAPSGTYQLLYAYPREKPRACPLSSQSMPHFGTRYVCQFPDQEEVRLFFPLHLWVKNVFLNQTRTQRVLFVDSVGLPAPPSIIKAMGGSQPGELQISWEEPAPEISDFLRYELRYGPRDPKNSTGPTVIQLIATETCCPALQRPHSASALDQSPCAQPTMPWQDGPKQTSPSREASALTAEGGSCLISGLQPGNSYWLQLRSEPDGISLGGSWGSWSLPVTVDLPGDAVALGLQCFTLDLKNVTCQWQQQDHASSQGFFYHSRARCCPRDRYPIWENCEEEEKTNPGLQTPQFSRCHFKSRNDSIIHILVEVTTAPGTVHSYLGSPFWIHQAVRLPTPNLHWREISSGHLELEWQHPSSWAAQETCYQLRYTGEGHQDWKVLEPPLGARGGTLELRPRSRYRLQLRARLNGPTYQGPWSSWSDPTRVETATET
Assay: MST; CALR del52 labelled with RED-NHS at 20 nM; label-free TpoR D1-D4 titrated 0.15 nM to 5 μM; Tris-based MST buffer with 0.01% Tween 20; Monolith NT.115, 40% LED, medium MST power
Settings: both partners purified

B1: Recombinant human CALR del52 (natural protein)
chain: EPAVYFKEQFLDGDGWTSRWIESKHKSDFGKFVLSSGKFYGDEEKDKGLQTSQDARFYALSASFEPFSNKGQTLVVQFTVKHEQNIDCGGGYVKLFPNSLDQTDMHGDSEYNIMFGPDICGPGTKKVHVIFNYKGKNVLINKDIRSKDDEFTHLYTLIVRPDNTYEVKIDNSQVESGSLEDDWDFLPPKKIKDPDASKPEDWDERAKIDDPTDSKPEDWDKPEHIPDPDAKKPEDWDEEMDGEWEPPVIQNPEYKGEWKPRQIDNPDYKGTWIHPEIDNPEYSPDPSIYAYDNFGVLGLDLWQVKSGTIFDNFLITNDEAYAEEFGNETWGVTKAAEKQMKDKQDEEQRTRRMMRTKMRMRRMRRTRRKMRRKMSPARPRTSCREACLQGWTEA
modifications: RED-NHS dye on lysines (in the MST experiment only)
**Q.** How did the Kd turn out when B1 was run?
**A.** ~104 nM
